Assay results from US20180155451A1 (published 2018).

T1: FcγRIIb (human, UniProt P31994 43-217)
T1 construct: extracellular domain; also called 2b; FcgRIIb
T1 sequence (looked up): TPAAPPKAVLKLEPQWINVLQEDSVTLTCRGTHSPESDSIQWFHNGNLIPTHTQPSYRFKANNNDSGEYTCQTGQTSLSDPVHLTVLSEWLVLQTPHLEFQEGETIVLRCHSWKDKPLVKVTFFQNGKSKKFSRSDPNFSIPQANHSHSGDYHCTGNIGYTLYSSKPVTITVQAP

B1: GpH7-A5/GpH7-B3 variant H268_15Y/GpL16-k0 (antibody, human IgG1, kappa)
heavy 1: not shown
heavy 2: not shown
light: DIVMTQSPLSLPVTPGEPASISCQASESLVHSNRNTYLHWYLQKPGQSPQLLIYKVSNRFSGVPDRFSGSGSGTDFTLKISRVEAEDVGVYYCSQNTHVPPTFGQGTKVEIERTVAAPSVFIFPPSDEQLKSGTASVVCLLNNFYPREAKVQWKVDNALQSGNSQESVTEQDSKDSTYSLSSTLTLSKADYEKHKVYACEVTHQGLSSPVTKSFNRGEC
notes: also called He Ab H268_15Y
B2: GpH7-A5/GpH7-B3 variant S324_06M/GpL16-k0 (antibody, human IgG1, kappa)
heavy 1: not shown
heavy 2: not shown
light: B1 light
notes: also called He Ab S324_06M
B3: GpH7-A5/GpH7-B3 variant S267_01G/GpL16-k0 (antibody, human IgG1, kappa)
heavy 1: not shown
heavy 2: not shown
light: B1 light
notes: also called He Ab S267_01G
B4: GpH7-A5/GpH7-B3 variant L328_10E/GpL16-k0 (antibody, human IgG1, kappa)
heavy 1: not shown
heavy 2: not shown
light: B1 light
notes: also called He Ab L328_10E
B5: GpH7-A5/GpH7-B3 variant S337_07I/GpL16-k0 (antibody, human IgG1, kappa)
heavy 1: not shown
heavy 2: not shown
light: B1 light
notes: also called He Ab S337_07I
B6: GpH7-A5/GpH7-B3 variant P238_09D/GpL16-k0 (antibody, human IgG1, kappa)
heavy 1: not shown
heavy 2: not shown
light: B1 light
notes: also called He Ab P238_09D
B7: GpH7-A5/GpH7-B3 variant P331_10E/GpL16-k0 (antibody, human IgG1, kappa)
heavy 1: not shown
heavy 2: not shown
light: B1 light
notes: also called He Ab P331_10E
B8: GpH7-A5/GpH7-B3 variant S239_06M/GpL16-k0 (antibody, human IgG1, kappa)
heavy 1: not shown
heavy 2: not shown
light: B1 light
notes: also called He Ab S239_06M
B9: GpH7-A5/GpH7-B3 variant N325_03V/GpL16-k0 (antibody, human IgG1, kappa)
heavy 1: not shown
heavy 2: not shown
light: B1 light
notes: also called He Ab N325_03V
B10: GpH7-A5/GpH7-B3 variant S239_10E/GpL16-k0 (antibody, human IgG1, kappa)
heavy 1: not shown
heavy 2: not shown
light: B1 light
notes: also called He Ab S239_10E
B11: GpH7-A5/GpH7-B3 variant P271_09D/GpL16-k0 (antibody, human IgG1, kappa)
heavy 1: not shown
heavy 2: not shown
light: B1 light
notes: also called He Ab P271_09D
B12: GpH7-A5/GpH7-B3 variant L234_09D/GpL16-k0 (antibody, human IgG1, kappa)
heavy 1: not shown
heavy 2: not shown
light: B1 light
notes: also called He Ab L234_09D
B13: GpH7-A5/GpH7-B3 variant P331_15Y/GpL16-k0 (antibody, human IgG1, kappa)
heavy 1: not shown
heavy 2: not shown
light: B1 light
notes: also called He Ab P331_15Y
B14: GpH7-A5/GpH7-B3 variant P331_07I/GpL16-k0 (antibody, human IgG1, kappa)
heavy 1: not shown
heavy 2: not shown
light: B1 light
notes: also called He Ab P331_07I
B15: GpH7-A5/GpH7-B3 variant P238_06M/GpL16-k0 (antibody, human IgG1, kappa)
heavy 1: not shown
heavy 2: not shown
light: B1 light
notes: also called He Ab P238_06M
B16: GpH7-A5/GpH7-B3 variant P238_19Q/GpL16-k0 (antibody, human IgG1, kappa)
heavy 1: not shown
heavy 2: not shown
light: B1 light
notes: also called He Ab P238_19Q
B17: GpH7-A5/GpH7-B3 variant P331_06M/GpL16-k0 (antibody, human IgG1, kappa)
heavy 1: not shown
heavy 2: not shown
light: B1 light
notes: also called He Ab P331_06M
B18: GpH7-A5/GpH7-B3 variant I332_14T/GpL16-k0 (antibody, human IgG1, kappa)
heavy 1: not shown
heavy 2: not shown
light: B1 light
notes: also called He Ab I332_14T
B19: GpH7-A5/GpH7-B3 variant L235_15Y/GpL16-k0 (antibody, human IgG1, kappa)
heavy 1: not shown
heavy 2: not shown
light: B1 light
notes: also called He Ab L235_15Y
B20: GpH7-A5/GpH7-B3 variant S239_05P/GpL16-k0 (antibody, human IgG1, kappa)
heavy 1: not shown
heavy 2: not shown
light: B1 light
notes: also called He Ab S239_05P
B21: GpH7-A5/GpH7-B3 variant I336_08L/GpL16-k0 (antibody, human IgG1, kappa)
heavy 1: not shown
heavy 2: not shown
light: B1 light
notes: also called He Ab I336_08L
B22: GpH7-A5/GpH7-B3 variant L235_04F/GpL16-k0 (antibody, human IgG1, kappa)
heavy 1: not shown
heavy 2: not shown
light: B1 light
notes: also called He Ab L235_04F
B23: GpH7-A5/GpH7-B3 variant P331_20W/GpL16-k0 (antibody, human IgG1, kappa)
heavy 1: not shown
heavy 2: not shown
light: B1 light
notes: also called He Ab P331_20W
B24: GpH7-A5/GpH7-B3 variant N325_07I/GpL16-k0 (antibody, human IgG1, kappa)
heavy 1: not shown
heavy 2: not shown
light: B1 light
notes: also called He Ab N325_07I
B25: GpH7-A5/GpH7-B3 variant I336_06M/GpL16-k0 (antibody, human IgG1, kappa)
heavy 1: not shown
heavy 2: not shown
light: B1 light
notes: also called He Ab I336_06M
B26: GpH7-A5/GpH7-B3 variant K326_07I/GpL16-k0 (antibody, human IgG1, kappa)
heavy 1: not shown
heavy 2: not shown
light: B1 light
notes: also called He Ab K326_07I
B27: GpH7-A5/GpH7-B3 variant L235_20W/GpL16-k0 (antibody, human IgG1, kappa)
heavy 1: not shown
heavy 2: not shown
light: B1 light
notes: also called He Ab L235_20W
B28: GpH7-A5/GpH7-B3 variant P238_16H/GpL16-k0 (antibody, human IgG1, kappa)
heavy 1: not shown
heavy 2: not shown
light: B1 light
notes: also called He Ab P238_16H

biological target: T1, FcγRIIb; assay: SPR (Biacore), binding relative to GpH7-A5/GpH7-B3/GpL16-k0 = 100
Method: Analysis of interaction between objective antibody and the FcγR was carried out using Biacore T100 (GE Healthcare). HBS-EP+ (GE Healthcare) was used as the running buffer, and the measurement temperature was set to 25° C. Chips produced by immobilizing the antigen peptide by the amine coupling method to a Series S Sencor Chip CM5 (GE Healthcare), or alternatively, chips produced by allowing preliminarily biotinylated antigen peptides to interact with and immobilize onto a Series S Sensor Chip SA (certified) (GE Healthcare) were used. Antibodies of interest were captured onto an antigen peptide-immobilized chip, and allowed to interact to each FcγR diluted with running buffer. To regenerate and repeatedly use the chip, the antibodies captured on the chip were washed off by reacting 10 mM glycine-HCl, pH 1.5.
The FcγR-binding activity of each antibody was assessed primarily using as an indicator the FcγR-binding activity and dissociation constant for FcγR.

| He/Con_2b | Binder |
| --- | --- |
| 106 % of control | B1 |
| 112 % of control | B2 |
| 105 % of control | B3 |
| 172 % of control | B4 |
| 104 % of control | B5 |
| 221 % of control | B6 |
| 116 % of control | B7 |
| 101 % of control | B8 |
| 111 % of control | B9 |
| 181 % of control | B10 |
| 120 % of control | B11 |
| 150 % of control | B12 |
| 114 % of control | B13 |
| 114 % of control | B14 |
| 174 % of control | B15 |
| 110 % of control | B16 |
| 102 % of control | B17 |
| 106 % of control | B18 |
| 149 % of control | B19 |
| 102 % of control | B20 |
| 107 % of control | B21 |
| 118 % of control | B22 |
| 111 % of control | B23 |
| 171 % of control | B24 |
| 101 % of control | B25 |
| 199 % of control | B26 |
| 147 % of control | B27 |
| 115 % of control | B28 |
